Experimental data published in paper PMC10786891, “Massively parallel profiling of RNA-targeting CRISPR-Cas13d”.
Changes are numbered by the printed parent chain.

Target: T1, EsCas13d, nuclease-dead (Eubacterium siraeum, UniProt B0MS50, R295A;H300A;R849A;H854A)
T1 sequence: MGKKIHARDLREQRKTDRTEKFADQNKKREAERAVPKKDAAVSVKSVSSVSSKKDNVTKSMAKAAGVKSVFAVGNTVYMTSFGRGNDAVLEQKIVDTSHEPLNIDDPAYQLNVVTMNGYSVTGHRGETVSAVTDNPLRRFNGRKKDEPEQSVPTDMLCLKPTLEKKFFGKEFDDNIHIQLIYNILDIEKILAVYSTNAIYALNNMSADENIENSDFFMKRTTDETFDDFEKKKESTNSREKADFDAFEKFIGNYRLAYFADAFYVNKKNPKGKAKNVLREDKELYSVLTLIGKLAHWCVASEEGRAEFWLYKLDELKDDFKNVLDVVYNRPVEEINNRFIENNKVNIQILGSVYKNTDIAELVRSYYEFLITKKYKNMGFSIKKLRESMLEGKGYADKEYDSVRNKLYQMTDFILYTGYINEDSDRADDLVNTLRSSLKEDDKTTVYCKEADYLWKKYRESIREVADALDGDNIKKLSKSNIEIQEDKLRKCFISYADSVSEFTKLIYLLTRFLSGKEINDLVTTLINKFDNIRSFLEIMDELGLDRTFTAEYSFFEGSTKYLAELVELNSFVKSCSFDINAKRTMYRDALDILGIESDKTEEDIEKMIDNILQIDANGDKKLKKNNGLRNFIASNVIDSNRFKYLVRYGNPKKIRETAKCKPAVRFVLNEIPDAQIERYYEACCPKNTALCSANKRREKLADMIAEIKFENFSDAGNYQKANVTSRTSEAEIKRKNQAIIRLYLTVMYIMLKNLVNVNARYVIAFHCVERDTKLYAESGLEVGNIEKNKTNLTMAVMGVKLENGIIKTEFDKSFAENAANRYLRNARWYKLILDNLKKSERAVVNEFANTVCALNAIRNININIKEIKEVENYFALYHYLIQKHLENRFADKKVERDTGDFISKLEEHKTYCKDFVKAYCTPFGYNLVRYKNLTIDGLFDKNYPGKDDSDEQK
Assay: crRNA (strand 1, pre-loaded); Mg2+; 40 mM Tris-HCl pH 7.5, 150 mM NaCl, 6 mM MgCl2, 1 mM DTT, 0.1% Tween-20, 0.2 mg/ml BSA; 25 C; 10 min per concentration, then washed
Conditions: tags: His6-TwinStrep-SUMO cleaved; N-terminal SNAP kept (SNAP-Surface 488); label: 3' end held by stalled T7 RNA polymerase

B1: target 2 MT 5'PFS CAU 3'PFS UGC (mixed)
RNA 1: CACCCGUGCAAAAUUGCAGGGGUCUAAAACCUUCUCCAAAUUGUUUCAUCCU
RNA 2: GGGAAUGGAUCCACAUCUACGAAUUCCAUAGGAUGAAACAAUUUGGAGAAGUGCAGAUCGGAAGAGCACACGU
Q: For B1, which Kd is on record?
A: The Kd was 3.1 ± 0.5 nM.

B2: target 2 MT 5'PFS GUG 3'PFS UGU (mixed)
RNA 1: B1 RNA 1
RNA 2: B1 RNA 2 with C27G, A28U, U29G, C54U
Q: B2 was tested. Which Kd did it give?
A: The Kd was 27 ± 2.4 nM.

B3: target 2 MT 5'PFS GCA 3'PFS AAU (mixed)
RNA 1: B1 RNA 1
RNA 2: B1 RNA 2 with C27G, A28C, U29A, U52A, G53A, C54U
Q: B3 was tested. Which Kd did it give?
A: Its Kd is 10 ± 1.9 nM.

B4: target 2 MT 5'PFS ACC 3'PFS UUA (mixed)
RNA 1: B1 RNA 1
RNA 2: B1 RNA 2 with C27A, A28C, U29C, G53U, C54A
Q: How did the Kd turn out when B4 was run?
A: The Kd was 9.6 ± 2.8 nM.

B5: target 2 MT 5'PFS UAA 3'PFS UUU (mixed)
RNA 1: B1 RNA 1
RNA 2: B1 RNA 2 with C27U, U29A, G53U, C54U
Q: B5 was tested. Which Kd did it give?
A: Its Kd is 13.4 ± 1.9 nM.

B6: target 2 MT 5'PFS CAG 3'PFS AAC (mixed)
RNA 1: B1 RNA 1
RNA 2: B1 RNA 2 with U29G, U52A, G53A
Q: Which Kd does the source give for B6 here?
A: The Kd was 6.1 ± 1.4 nM.

B7: target 2 MT 5'PFS AAC 3'PFS AGA (mixed)
RNA 1: B1 RNA 1
RNA 2: B1 RNA 2 with C27A, U29C, U52A, C54A
Q: With B7 as the binder, how does the Kd read?
A: The Kd was 3.3 ± 0.8 nM.

B8: target 2 MT 5'PFS AGA 3'PFS CGC (mixed)
RNA 1: B1 RNA 1
RNA 2: B1 RNA 2 with C27A, A28G, U29A, U52C
Q: B8 was tested. Which Kd did it give?
A: Its Kd is 6.5 ± 1.2 nM.

B9: target 2 MT 5'PFS CGA 3'PFS CGC (mixed)
RNA 1: B1 RNA 1
RNA 2: B1 RNA 2 with A28G, U29A, U52C
Q: With B9 as the binder, how does the Kd read?
A: The Kd was 5.6 ± 1.5 nM.

B10: target 2 MT 5'PFS ACU 3'PFS CCA (mixed)
RNA 1: B1 RNA 1
RNA 2: B1 RNA 2 with C27A, A28C, U52C, G53C, C54A
Q: Which Kd does the source give for B10 here?
A: The Kd was 7.3 ± 1.8 nM.

B11: target 2 MT 5'PFS CAU 3'PFS UGU (mixed)
RNA 1: B1 RNA 1
RNA 2: B1 RNA 2 with C54U
Q: How did the Kd turn out when B11 was run?
A: The Kd was 4.4 ± 0.5 nM.

B12: target 2 MT 5'PFS GCC 3'PFS CCA (mixed)
RNA 1: B1 RNA 1
RNA 2: B1 RNA 2 with C27G, A28C, U29C, U52C, G53C, C54A
Q: For B12, which Kd is on record?
A: Its Kd is 20 ± 4 nM.

B13: target 2 MT 5'PFS CGA 3'PFS AGC (mixed)
RNA 1: B1 RNA 1
RNA 2: B1 RNA 2 with A28G, U29A, U52A
Q: B13 was tested. Which Kd did it give?
A: The Kd was 7.8 ± 1.1 nM.

B14: target 2 MT 5'PFS ACU 3'PFS CCG (mixed)
RNA 1: B1 RNA 1
RNA 2: B1 RNA 2 with C27A, A28C, U52C, G53C, C54G
Q: Which Kd does the source give for B14 here?
A: The Kd was 6.2 ± 0.6 nM.

B15: target 2 MT 5'PFS CUG 3'PFS CAU (mixed)
RNA 1: B1 RNA 1
RNA 2: B1 RNA 2 with A28U, U29G, U52C, G53A, C54U
Q: Which Kd does the source give for B15 here?
A: Its Kd is 2.29 ± 0.24 nM.

B16: target 2 MT 5'PFS CUC 3'PFS CUA (mixed)
RNA 1: B1 RNA 1
RNA 2: B1 RNA 2 with A28U, U29C, U52C, G53U, C54A
Q: For B16, which Kd is on record?
A: Its Kd is 2.02 ± 0.29 nM.

B17: target 2 MT 5'PFS CUC 3'PFS CUG (mixed)
RNA 1: B1 RNA 1
RNA 2: B1 RNA 2 with A28U, U29C, U52C, G53U, C54G
Q: With B17 as the binder, how does the Kd read?
A: Its Kd is 4.4 ± 1.5 nM.

B18: target 2 MT 5'PFS CUC 3'PFS CUC (mixed)
RNA 1: B1 RNA 1
RNA 2: B1 RNA 2 with A28U, U29C, U52C, G53U
Q: With B18 as the binder, how does the Kd read?
A: Its Kd is 3.1 ± 0.6 nM.

B19: target 2 MT 5'PFS CGA 3'PFS AGA (mixed)
RNA 1: B1 RNA 1
RNA 2: B1 RNA 2 with A28G, U29A, U52A, C54A
Q: Which Kd does the source give for B19 here?
A: The Kd was 4.6 ± 0.9 nM.

B20: target 2 MT 5'PFS CGA 3'PFS CGA (mixed)
RNA 1: B1 RNA 1
RNA 2: B1 RNA 2 with A28G, U29A, U52C, C54A
Q: Which Kd does the source give for B20 here?
A: Its Kd is 5.3 ± 1 nM.

B21: target 2 MT 5'PFS CUG 3'PFS CAG (mixed)
RNA 1: B1 RNA 1
RNA 2: B1 RNA 2 with A28U, U29G, U52C, G53A, C54G
Q: B21 was tested. Which Kd did it give?
A: Its Kd is 2.33 ± 0.21 nM.

B22: target 2 MT 5'PFS AUA 3'PFS CGA (mixed)
RNA 1: B1 RNA 1
RNA 2: B1 RNA 2 with C27A, A28U, U29A, U52C, C54A
Q: For B22, which Kd is on record?
A: Its Kd is 9.5 ± 2.1 nM.

B23: target 2 MT 5'PFS CGG 3'PFS UCG (mixed)
RNA 1: B1 RNA 1
RNA 2: B1 RNA 2 with A28G, U29G, G53C, C54G
Q: With B23 as the binder, how does the Kd read?
A: The Kd was 7 ± 0.6 nM.

B24: target 2 MT 5'PFS GCA 3'PFS AAG (mixed)
RNA 1: B1 RNA 1
RNA 2: B1 RNA 2 with C27G, A28C, U29A, U52A, G53A, C54G
Q: Which Kd does the source give for B24 here?
A: The Kd was 7.8 ± 1.2 nM.

B25: target 2 MT 5'PFS UCG 3'PFS ACU (mixed)
RNA 1: B1 RNA 1
RNA 2: B1 RNA 2 with C27U, A28C, U29G, U52A, G53C, C54U
Q: For B25, which Kd is on record?
A: The Kd was 20 ± 4 nM.

B26: target 2 MT 5'PFS ACC 3'PFS UUU (mixed)
RNA 1: B1 RNA 1
RNA 2: B1 RNA 2 with C27A, A28C, U29C, G53U, C54U
Q: How did the Kd turn out when B26 was run?
A: The Kd was 7.8 ± 0.9 nM.

B27: target 2 MT 5'PFS UAA 3'PFS UUC (mixed)
RNA 1: B1 RNA 1
RNA 2: B1 RNA 2 with C27U, U29A, G53U
Q: B27 was tested. Which Kd did it give?
A: Its Kd is 14 ± 2.1 nM.

B28: target 2 MT 5'PFS CUG 3'PFS CAC (mixed)
RNA 1: B1 RNA 1
RNA 2: B1 RNA 2 with A28U, U29G, U52C, G53A
Q: With B28 as the binder, how does the Kd read?
A: The Kd was 3.7 ± 0.4 nM.

B29: target 2 MT 5'PFS CUC 3'PFS CUU (mixed)
RNA 1: B1 RNA 1
RNA 2: B1 RNA 2 with A28U, U29C, U52C, G53U, C54U
Q: Which Kd does the source give for B29 here?
A: The Kd was 2.47 ± 0.18 nM.

B30: target 2 MT 5'PFS ACC 3'PFS UUG (mixed)
RNA 1: B1 RNA 1
RNA 2: B1 RNA 2 with C27A, A28C, U29C, G53U, C54G
Q: Which Kd does the source give for B30 here?
A: Its Kd is 11.2 ± 2.2 nM.

B31: target 2 MT 5'PFS GCA 3'PFS AAA (mixed)
RNA 1: B1 RNA 1
RNA 2: B1 RNA 2 with C27G, A28C, U29A, U52A, G53A, C54A
Q: How did the Kd turn out when B31 was run?
A: The Kd was 6.5 ± 2 nM.

B32: target 2 MT 5'PFS GCA 3'PFS AAC (mixed)
RNA 1: B1 RNA 1
RNA 2: B1 RNA 2 with C27G, A28C, U29A, U52A, G53A
Q: B32 was tested. Which Kd did it give?
A: Its Kd is 11.9 ± 3.3 nM.

B33: target 2 MT 5'PFS UCG 3'PFS ACG (mixed)
RNA 1: B1 RNA 1
RNA 2: B1 RNA 2 with C27U, A28C, U29G, U52A, G53C, C54G
Q: How did the Kd turn out when B33 was run?
A: Its Kd is 45 ± 9 nM.

B34: target 2 MT 5'PFS GCC 3'PFS CCG (mixed)
RNA 1: B1 RNA 1
RNA 2: B1 RNA 2 with C27G, A28C, U29C, U52C, G53C, C54G
Q: For B34, which Kd is on record?
A: The Kd was 18 ± 2 nM.

B35: target 2 MT 5'PFS ACC 3'PFS UUC (mixed)
RNA 1: B1 RNA 1
RNA 2: B1 RNA 2 with C27A, A28C, U29C, G53U
Q: Which Kd does the source give for B35 here?
A: The Kd was 8.2 ± 1.4 nM.

B36: target 1 insC 3' of 16,insU 3' of 7 (mixed)
RNA 1: CACCCGUGCAAAAAUGCAGGGGUCUAAAACUGAGCGGAUAACCUCUCUAUGG
RNA 2: GGGAAUGGAUCCACAUCUACGAAUUCGUACCAUAGACGAGGUUAUCUCGCUCACCGAGAUCGGAAGAGCACACGU
Q: How did the Kd turn out when B36 was run?
A: Its Kd is 75 ± 8 nM.

B37: target 1 insC 3' of 11,insU 3' of 7 (mixed)
RNA 1: B36 RNA 1
RNA 2: B36 RNA 2 with C37G, G38A, A39G, G41U, U42C
Q: For B37, which Kd is on record?
A: The Kd was 39 ± 5 nM.

B38: target 1 insG 3' of 22,insG 3' of 21 (mixed)
RNA 1: B36 RNA 1
RNA 2: GGGAAUGGAUCCACAUCUACGAAUUCGUACGCGAUAGAGAGGUUAUCCGCUCACCGAGAUCGGAAGAGCACACGU
Q: How did the Kd turn out when B38 was run?
A: The Kd was 68 ± 24 nM.
